Experimental data taken from US20040086933A1 (Chugai, published 2004).

B1: N-striamin with a histidine tag (pQE30/N-striamin) (other)
chain: MKGLAGEWHQDSGLDIREKAEDFSLPWLLPRLMALVMQEEGRFRSDRNHGYLREWLRIQALTACLPSPLGRVHYA
notes: not shown: N-terminal His tag encoded by the pQE30 vector (Qiagen)
B2: full-length striamin with a histidine tag (pQE30/full-length striamin) (other)
chain: MKGLAGEWHQDSGLDIREKAEDFSLPWLLPRLMALVMQEEGRFRSDRNHGYLREWLRIQALTACLPSPLGRVHYAQCSPKQKGRLPRGWASLPSLSVLVRALRASNAFSLGNYYCCPWRGTRWAKGQPGEWARPRASSPSAHREGVAVT
notes: also called pQE30/striamin; His-tagged striamin; not shown: N-terminal His tag encoded by the pQE30 vector (Qiagen)
B3: C-striamin with a histidine tag (pQE30/C-striamin) (other)
chain: QCSPKQKGRLPRGWASLPSLSVLVRALRASNAFSLGNYYCCPWRGTRWAKGQPGEWARPRASSPSAHREGVAVT
notes: as for B1

Experiments:
[1] = target: temperature-sensitive p53 (pMSVp53Val135) (UniProt P02340); assay: cell-based or functional assay
[2] = target: T1, GST (UniProt P08515 1-218 = GST); assay: GST pull-down with glutathione-Sepharose, anti-His Western blot (FIG. 9, Lanes 4 to 6)
T1 construct: also called glutathione S-transferase
Method: Different striamins conjugated to histidines were reacted with p53 conjugated to GST in vitro, and the reaction was immunoprecipitated with glutathione Sepharose beads, followed by Western blot analysis using anti-histidine-tag and anti-p53 antibodies (“GST-p53 pull” in the figure).
Each protein purified in step (1) (2 to 5 μg) was mixed with GST or GST-p53 (1 μg, Santa Cruz) in NP40-lysis buffer (500 μl). After two hours, glutathione-Sepharose beads (20 μl) were added to the suspension and rotated for mixing for one hour at 4° C. The beads were precipitated by centrifugation, washed three times with TBS and then boiled in SDS-sample buffer. Subsequently, SDS-PAGE was carried out for each sample, followed by detection of the respective striamins conjugated to the histidines by Western blotting using an anti-histidine-tag antibody. In addition, p53 was detected by Western blotting using anti-p53 antibody.

T1 sequence (P08515 whole entry): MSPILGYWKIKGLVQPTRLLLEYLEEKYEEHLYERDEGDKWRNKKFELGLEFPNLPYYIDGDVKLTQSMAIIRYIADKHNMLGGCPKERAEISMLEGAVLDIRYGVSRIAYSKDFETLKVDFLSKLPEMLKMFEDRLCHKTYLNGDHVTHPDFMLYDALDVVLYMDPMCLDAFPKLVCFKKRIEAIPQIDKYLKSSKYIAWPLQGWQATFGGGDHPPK

Molecule	p53 activity (p53-responsive luciferase reporter PG-13luc in p53-/- MEF cells) [1] [fold]	β-gal positive cells (p53-responsive β-gal reporter pRGC fos-lacZ in microinjected p53-/- MEF cells) [1] [%]	binding result [2]
striamin (full-length, untagged)	4.6	5	–
B1	–	–	no binding
B2	–	–	no binding
B3	–	–	no binding
